Measurements: patent US20190194268A1 (DONALD DANFORTH PLANT SCIENCE CENTER, published 2019)

Columns and labels:
[1] = system: F. graminearum; type: cell-based, Fusarium graminearum; settings: γ-core motif variants
[2] = system: F. graminearum PH-1; type: cell-based, Fusarium graminearum; settings: γ-core motif variants

B1: MtDef5FL1_V1 (other)
chain: KLCQAASTTWSGPCLNTGNCKRQCINVEHATFGACAAQGFGFACFCYKKCAPKKVEPKLCEAASKTWSGPCLISGNCKRQCINVEHATSGACAAQGIGFACFCKKKC
notes: Alanine variant expressed in P. pastoris; also called MtDef5FL1 γ-core motif variant V1
For B1, the “ability to permeabilize the plasma membrane (SG uptake) compared with wild-type MtDef5FL1” value [1] was “lost its ability to permeabilize the fungal plasma membrane almost completely” and the “reduction in antifungal activity against F. graminearum relative to wild-type MtDef5FL1” value [2] was 4 fold.
